Data set [1] addresses T1, Bovine Alpha-s1-casein (SEQ ID NO: 1).
T1 chain: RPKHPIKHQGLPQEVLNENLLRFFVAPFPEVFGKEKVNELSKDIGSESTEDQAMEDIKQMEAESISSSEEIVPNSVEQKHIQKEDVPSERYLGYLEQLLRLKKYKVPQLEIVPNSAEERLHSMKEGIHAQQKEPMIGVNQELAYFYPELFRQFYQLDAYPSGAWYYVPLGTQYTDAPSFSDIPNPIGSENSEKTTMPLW

The target of data set [2] is T2, Bovine Beta-casein (SEQ ID NO: 3).
T2 chain: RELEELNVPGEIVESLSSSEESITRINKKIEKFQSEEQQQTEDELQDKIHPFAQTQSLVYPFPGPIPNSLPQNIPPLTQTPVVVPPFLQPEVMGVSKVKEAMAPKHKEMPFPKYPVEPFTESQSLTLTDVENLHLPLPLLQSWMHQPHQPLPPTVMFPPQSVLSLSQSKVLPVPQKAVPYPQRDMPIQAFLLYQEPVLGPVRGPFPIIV

B1: YabT (GenBank: SPU13583.1) (SEQ ID NO: 5) (protein)
chain: MLNWTPKLQSLSTPFAKLSTAAITPTGPAIREATLQFEKYAQEGACWQMMNDALTSLACSLKPGTTIKGKWNGNTYTLRKQLGKGANGIVYLAETSDGHVALKVSDDSLSITSEVNVLKSFSKAQSVTMGPSFFDTDDAYIPSANTKVSFYAMEYIKGPLLLKYVSDKGAEWIPVLMIQLLSSLSVLHQQGWIFGDLKPDNLIVTGPPARIRCIDVGGTTKEGRAIKEYTEFYDRGYWGYGTRKAEPSYDLFAVAMIMINSVHKKEFKKTNQPKEQLRSLIEGNPLLQKYKKALFSALNGDYQSADEMKKDMLDAGQKAAQRKQPIKASPQPATRQRQQKPRQGKITKTRYTPKQKPAKSGGLFETTLIVISVLALYFAYIIFFLI
B1: in data set [1], the “number of phosphorylated sites similar to native phosphorylation sites, MS” value (“number … to native phosphorylation sites, MS” for short) was “with 9 and 8 sites showing similarity to native phosphorylation sites”; the “number of sites phosphorylated, in vitro kinase reaction, MS” value (from here on “number of sites phosphorylated”) was “PrkD and YabT phosphorylated 13 and 10 sites, respectively”; the “phosphorylation at *S56 (native site), MS grade, in vitro kinase reaction” value (“phosphorylation at *S56 (native site)” below) is “+++”; the “phosphorylation at *S61 (native site), MS grade, in vitro kinase reaction” value is given as “++”. Further, in data set [1], the “phosphorylation at *S63 (native site), MS grade, in vitro kinase reaction” value was “++”; the “phosphorylation at *S79 (native site), MS grade, in vitro kinase reaction” value is “+++”; the “phosphorylation at *S81 (native site), MS grade, in vitro kinase reaction” value is “+++”; the “phosphorylation at *S82 (native site), MS grade, in vitro kinase reaction” value was “+++”. In data set [1], the “phosphorylation at *S83 (native site), MS grade, in vitro kinase reaction” value was “+++”; the “phosphorylation at *S90 (native site), MS grade, in vitro kinase reaction” value is given as “++”; the “phosphorylation at S103, MS grade, in vitro kinase reaction” value (“phosphorylation at S103, MS grade” for short) is given as “+”; the “phosphorylation at S137, MS grade, in vitro kinase reaction” value (shortened to “phosphorylation at S137, MS grade”) is given as “+”. Besides, in data set [2], the “number … to native phosphorylation sites, MS” value was “with 3 sites showing similarity to native phosphorylation sites”; the “number of sites phosphorylated” value was “PrkD and YabT phosphorylated 5 sites each”; the “phosphorylation at *S30 (native site), MS grade, in vitro kinase reaction” value (“phosphorylation at *S30 (native site)” below) is listed as “++”; the “phosphorylation at *S32 (native site), MS grade, in vitro kinase reaction” value was “++”. In addition, in data set [2], the “phosphorylation at *S50 (native site), MS grade, in vitro kinase reaction” value is “++”; the “phosphorylation at T39, MS grade, in vitro kinase reaction” value (“phosphorylation at T39, MS grade” below) is “++”; the “phosphorylation at T56, MS grade, in vitro kinase reaction” value was “+”.

B2: PKNB1_Cgl2751 (Corynebacterium glutamicum) (SEQ ID NO: 9) (protein)
chain: MYEVLGVIAHGGMGWIYLANDRNVSGRIVVLKGMMAQSSVQDQGTAEAEREFLADITHPGIVKAYNFIDDPRVPGGFIVMEYVNGPSLKDRCKAQPDGVLRVDLAIGYILELLPAMDYLHQRGVVYNDLKPENVIATEDQVKLIDLGAVTGIGAFGYIYGTKGFQAPEVATHGPSISSDIFTIGRTLAALTMPLPVEDGVLAPGIPSPKNSPLLRRHLSFYRLLQRATADDPQHRFRNVSELRTQLYGVLREILAVRDGKQYPPQHSLFSPQRSTFGTKHLVF
With B2, in data set [1], the number of phosphorylated sites similar to native bovine phosphorylation sites, MS worked out at 1 sites; the “number of sites phosphorylated” value is “PKNB and PrkC phosphorylated 6 sites in αs1-casein each”; the “phosphorylation at *S130 (native site), MS grade, in vitro kinase reaction” value (“phosphorylation at *S130 (native site)” for short) was “+”; the “phosphorylation at S103, MS grade” value is on record as “+”. Further, in data set [1], the “phosphorylation at S137, MS grade” value is “+”; the “phosphorylation at Y109, MS grade, in vitro kinase reaction” value is “+”; the “phosphorylation at Y159, MS grade, in vitro kinase reaction” value (shortened to “phosphorylation at Y159, MS grade”) was “+”; the “phosphorylation at Y188, MS grade, in vitro kinase reaction” value is on record as “+”. Moreover, in data set [2], the number of phosphorylated sites similar to native bovine phosphorylation sites, MS turned out to be 1 sites; the “number of sites phosphorylated” value was “PKNB and PrkC phosphorylated 2 sites in β-casein each”; the “phosphorylation at *S30 (native site)” value is given as “+”; the “phosphorylation at T39, MS grade” value is recorded as “+++”.

B3: PrkD (Bacillus subtilis 168 | BSU_02030) (SEQ ID NO: 7) (protein)
chain: MALKLLKKLLFDRPLKNGVILNHQYKIEECLGMGGYGLVYLCTDILAQTPYVLKQLRPTKAKKEKEKVRFQQEIKLLKNIHHPQIPGFIDEFIIDGQAYYVMQFIEGENIEELLFFRKQPFTELMALQLISQLLEIIEYLHDRLIFHSDIRTPNIIINDGRLCLIDFGLAKQLTPEEMEEIKVRKQDDFFDLGETLLFLLYSQYKGKKKKNGTWLEELTLTKEVTLLLKRLLGIEEEYQHTASIREDLNRAIQSVT
For the protein B3, in data set [1], the “number … to native phosphorylation sites, MS” value was “with 9 and 8 sites showing similarity to native phosphorylation sites”; the “number of sites phosphorylated” value was “PrkD and YabT phosphorylated 13 and 10 sites, respectively”; the “phosphorylation at *S56 (native site)” value is reported as “++”; the “phosphorylation at *S61 (native site), MS grade, in vitro kinase reaction” value is listed as “+”. Besides, in data set [1], the “phosphorylation at *S63 (native site), MS grade, in vitro kinase reaction” value was “+”; the “phosphorylation at *S79 (native site), MS grade, in vitro kinase reaction” value is “+”; the “phosphorylation at *S81 (native site), MS grade, in vitro kinase reaction” value is “+”; the “phosphorylation at *S82 (native site), MS grade, in vitro kinase reaction” value is listed as “+”. In data set [1], the “phosphorylation at *S83 (native site), MS grade, in vitro kinase reaction” value is recorded as “+”; the “phosphorylation at *S90 (native site), MS grade, in vitro kinase reaction” value was “+”; the “phosphorylation at *S130 (native site)” value was “+++”; the “phosphorylation at S103, MS grade” value was “+”. In addition, in data set [1], the “phosphorylation at S137, MS grade” value is listed as “+”; the “phosphorylation at Y159, MS grade” value is “+”; the “phosphorylation at Y161, MS grade, in vitro kinase reaction” value was “+”. For the same protein, in data set [2], the “number … to native phosphorylation sites, MS” value is on record as “with 3 sites showing similarity to native phosphorylation sites”; the “number of sites phosphorylated” value is “PrkD and YabT phosphorylated 5 sites each”; the “phosphorylation at *S30 (native site)” value is “+”; the “phosphorylation at *S32 (native site), MS grade, in vitro kinase reaction” value was “+”. Also, in data set [2], the “phosphorylation at *S50 (native site), MS grade, in vitro kinase reaction” value is reported as “+”; the “phosphorylation at S337, MS grade, in vitro kinase reaction” value is reported as “+”; the “phosphorylation at T39, MS grade” value was “+”.

B4: PrkC (Bacillus subtilis) (SEQ ID NO: 8) (protein)
chain: MSGPVPSRARVYTDVNTHRPREYWDYESHVVEWGNQDDYQLVRKLGRGKYSEVFEAINITNNEKVVVKILKPVKKKKIKREIKILENLRGGPNIITLADIVKDPVSRTPALVFEHVNNTDFKQLYQTLTDYDIRFYMYEILKALDYCHSMGIMHRDVKPHNVMIDHEHRKLRLIDWGLAEFYHPGQEYNVRVASRYFKGPELLVDYQMYDYSLDMWSLGCMLASMIFRKEPFFHGHDNYDQLVRIAKVLGTEDLYDYIDKYNIELDPRFNDILGRHSRKRWERFVHSENQHLVSPEALDFLDKLLRYDHQSRLTAREAMEHPYFYTVVKDQARMGSSSMPGGSTPVSSANMMSGISSVPTPSPLGPLAGSPVIAAANPLGMPVPAAAGAQ
On to B4, for which, in data set [1], the number of phosphorylated sites similar to native bovine phosphorylation sites, MS was 2 sites; the “number of sites phosphorylated” value was “PKNB and PrkC phosphorylated 6 sites in αs1-casein each”; the “phosphorylation at *S56 (native site)” value is on record as “+”; the “phosphorylation at *S130 (native site)” value is given as “+”. In data set [1], the “phosphorylation at S103, MS grade” value was “+”; the “phosphorylation at S137, MS grade” value is on record as “+”; the “phosphorylation at Y109, MS grade, in vitro kinase reaction” value is on record as “+”; the “phosphorylation at Y159, MS grade” value is “+”. In addition, in data set [2], the number of phosphorylated sites similar to native bovine phosphorylation sites, MS stood at 1 sites; the “number of sites phosphorylated” value is “PKNB and PrkC phosphorylated 2 sites in β-casein each”; the “phosphorylation at *S30 (native site)” value is listed as “+”; the “phosphorylation at T39, MS grade” value is listed as “++”.

The values above are taken from patent US20250206792.
